Experimental data published in patent publication US10801046B2, “Methods and materials for biosynthesizing multifunctional, multivariate molecules via carbon chain modification” (INVISTA NORTH AMERICA S.A.R.L., priority 2016, dated 2020).

Tested on: not listed separately
Assay: In vivo carboxylate reductase screening, substrate consumption by LC-MS, monomethyl heptanedioate
Assay type: cell-based, Escherichia coli
Details: 541 enzymes screened in vivo
Description: To screen carboxylate reductases in vivo, […] T7- pUC expression vectors was co-transformed into T7 Express lysY/Iq with the phosphopantetheinyl transferase sfp from Bacillus subtilis on a T7-pCDF expression vector. Biological duplicates of the resulting strains were incubated in 0.5 mL of terrific broth containing either 1 g/L heptanedioate or 1 g/L monomethyl heptanedioate and supplemented with 0.4 mM IPTG in 96-well deep well plates. The plates were incubated for 30 h at 30° C. in a shaking incubator. The cells were then pelleted, and culture supernatants from the same strains in media containing either heptanedioate or monomethyl heptanedioate were combined. The combined supernatants were analyzed by LC-MS to determine the concentration of heptanedioate and monomethyl heptanedioate. Carboxylate reductase activity on heptanedioate or monomethyl heptanedioate was reflected by consumption of the respective substrate in the medium.

Molecule	monomethyl heptanedioate activity
SEQ ID NO: 212: Anisakis simplex carboxylate reductase (protein, Anisakis simplex, Anisakis simplex carboxylate reductase) MYERLLHCIGYQVGLRFGFFGGDVNRLIDDIKELHPTVIPLVPRVLNRFHDTVMAKVNKSFLKRIIFNLALAFKYRELSRSIIRNDSLVDRYVFKRVREELGGRARFSMIGSAPVHGDILRFSRAVLGYVIVEGYGATECAAGTSAVIEADPITEHIGIPLACAAIKLVDVPELGYYAKDQAGEICYRGAHVFKGYFKNDEGTKEVLDADGWLHSGDIGRWTERGTLKIVDRKKHIFKLQQGEYIAPEKIEAVYDRSEYVVQSFVYGESLKTCLVAIIVPDQEIVLRDAKQKLDLAETDFAKLCRNDAVKKMILNDLTIVGRKAGLNSFEQVKDIYLSVERFTIANDLLTPTMKNKRPQIKSHFMKELNEMYSKLK	most monomethyl heptanedioate activity
SEQ ID NO: 213: Helobdella robusta carboxylate reductase (protein, listed as Helobdella robusta) MRVSNNGPFLGHRCRFTKQYVWQTYEEIFELCQDFGSALIYKGLKPEDSTVIGIYSHNCVEWNITSETCSMFSMALVPLYDTLGPEACQYIINQTEMTTVVCEGWLKANLILNGLKQAESRTATPLKRLIIITNKDFHMSLKDSVRVSKHFSSSPDLANFADADSLSKNVLETAEKFGVEIPPTPSTINLISYTSGTTGDPKGVVLTHEAVICNISGLLAYDQHHKLFPKCGDFHLSYLPAAHGFERMNQIILMINGGQIGFSSGDILLLLDDIAALRPTIFMCVPRVLNRVYEKVMSNLENKPIKRWLFNFGMQRKLNLLKRGIITKNTIWDKLMFHKIQTLFGGRLEVCISGSAPLSDVVMDFCRGTFGCFVYEGYGQTELCAATMLTLPYEHDTVVVGPPLPNCHIKLIDIPDLDYKAINNMGEICIKSFCRMREYFKEPIKTRETLDEDSYIHTGDVGMWLPNGNLRIIDRRKHVFKLAQGEYVAPEKIENIYAMSPLICQVFVDGNSLQFCPLAVVVPDEDALKRLAERDSRTSKTICPIKICNMEQFCKNEEIRKMIHADMLQRGKKAGLKGFEQVKDIHLHPEKFSIENGLLTPTMKTKRPILRKKFQNIFVEMYEKLNRNVVSTNITTHPLQNL	most monomethyl heptanedioate activity
SEQ ID NO: 214: Mycobacterium lepromatosis carboxylate reductase (protein, listed as Mycobacterium lepromatosis) MSTTNTQEEQLARRVDYLTANDPQFAAAKPDPAVVAALAQPGLRLPQIIQTTLDGYAERPALGQRVVEFIKDPKTGRTSIELLPCFETITYRELSDRVGALARAWIHDLLHAGDRVCVLGFNSVDYAIIDMALGVISAVAVPLQTSAAITQLQPIVIETEPRVIAASVNQLPDTVELILSGPAPAKLVVFDYHPEADEQRDAVATARERLVDNNVVVESLIEVLDRGKTLPATPIPVADDSDDPLALLIYTSGSTGAPKGAMYPQSNVGKMWRRSDGNWFRSTAASITLNFMPMSHVMGHGILYGTLGNGGTAYFAARSDLSTLLEDLKLVRPTELNFVPRIWETLYDECQHAVDRRLTNSGSADRAAIEAEVMDEQRQSLLGGRYIAAMTGSAPTSPELKHGVESLLEMHLLEGYGSTEAGMVLFDGEVQRPPVIDYKLVDVPDLGYFSTDQPYPRGELLLKTQNMFPGYYKRPEVTATVFDGDGYYQTGDIVAEVGPARLVYVDRRNNVLKLAQGQFVTVAQLEAAFSNSPLVRQIYIYGNSAHPYLLAVVVPTEDALATNDIEALKPLIIDSLQEVAKEAELQSYEVPRDLIIETTPFSLENGLLTGIRKLAWPKLKQHYGARLEQLYADLAEGQTNALHALRQSGAEAPVLQTVSRAAGTILGAATTDLPSNAHFTDLGGDSLSALTFSNLLRELFNIDVPVGVIVSPVNDLAAIADYIESEQQGTKRPTFTAIHGRDAGEVHASDLTLDKFIDVSTLTAAPMLAQPDAEVRTVLLTGATGFLGRYLALKWLERMDLVDGKVIALVRAKSNEEARARLGKTFDSGDPKLLAHYQELAADHLEVIAGDKGEVELELDRQTWRRLADTVDLIVDPAALVNHVLPYSELFGPNALGTAELIRIALTSKQKPYIYVSTIGVGDQIEPAKFTEDSDIRVTSPTRKINDNYANGYGNSKWAGEVLLREAHELCGLPVAVFRCDMILADTSYAGQLNVPDMFTRMMLSLAATGIAPGSFYELDAESNRQRAHYDGLPVEFIAEAISTLGAQSLHGRDGFATYHVMNPHDDGIGMDEFVDWLIDAGCPIQRINDYDEWLRRFEISLRALPERQRHNSLLPLLHNYQKPEKPLNGSLAPTDRFRTAVQESKIVQDKDIPHISSAIIGKYVSDLQLLGLLRRQADRSPARVPS	most monomethyl heptanedioate activity
SEQ ID NO: 215: Schizopora paradoxa carboxylate reductase (protein, listed as Schizopora paradoxa) MASTLLQDVSPAPPLMISPLEIPLPEPVDFSKQAVEVPGTRRPGQTGHYQNAVWGFKAFPEEGPVYTLPDVFELGLSLEKNGQTSNKPFLGHRPVISAEPLKFASDYVWSTYAEADERRQNVGSALEKYFRDGTLGGGEYQTVGIWSQNRAEWQIVELACHAYGKVSVSLYDTLGKDSVEYIIEHAHLTVIFVTSQHIPLLLAMASKVPMLKLIVSVDELSSEAKRIMGIWSRTANVQVMELSELEQFGKANRLNMARPIGKSLATICYTSGTTSGPKGVLLTHSNLVSSVKSNLRASHFGEKGGIMMSYLPLAHIYERITELCTMALGGQIGFFTGDPLRLLEDASILKPNFFPSVPRVLNRVYQSAMLAGQTPGLKGYLFRTAMDAKLKKLHETGDNTHMLWDRLVFRKIQALLGGNVELVSCGSAPISVDVMDFLKIAFSCDVIEGYGMTENCGTCTRCWPNDPSSSGTVGAPQPCNEIKLVDVPSMNYTSNDKPNPRGEVCLRGNNCFSTYYKDEKNTRETVDEEGWLHTGDVGEIDSAGRLKIIDRIKNIMKLAQGEYVALEKIENVYGLHPLVAQLYVHGESLQDHLVGVIVPDPTQFAILCNSIRGTKIGANDSAELATAARDPAVAQAVLREITHEAKKAALKGFEMIKKIHLTTVPFSTENGLLTPTFKVRRKDCSIYFKEELAALYAQPTSMLK	most monomethyl heptanedioate activity

Tested on: heptanedioyl-ACP
Assay: Cell lysate in vitro thioesterase screen (DTNB, absorbance at 410 nm) on heptanedioyl-ACP
Assay type: biochemical
Details: 0.33 mM acyl-ACP substrate, 30° C., 30 min

Molecule	activity toward heptanedioyl-ACP (hydrolysis)
SEQ ID NO: 95: Aerococcus viridans ATCC 11563 thioesterase (protein, Aerococcus viridans ATCC 11563 = CCUG 4311, Aerococcus viridans ATCC 11563 thioesterase) MINIRHYQGGKRMGLLYQESVKVRHYHCNALGEMTLPAILDIMLIASNNQEATIPEAKEGFRQEGWAWIITQNQIDINRLPRYDEDIIAETEATTYNKFFSKRHYALKTRDGLVLAQAETTFALIDLNQRSIVRIPEIVAEWYQVEKEERPSRRKRLNKEIAVESKLDRFEVKFLDIDLNNHVNNTIYLRWITNSLGMEWFEKYTPTSFTVAYEKEMYLHQEGAVHSDISTVSEDLKSGDTFNSQHVIDSEDKAHCLTEITWQVK	notable for their activity toward heptanedioyl-ACP
SEQ ID NO: 182: Firmicutes bacterium CAG:449 thioesterase (protein, Firmicutes bacterium CAG:449, Firmicutes bacterium CAG:449 thioesterase) MNYYQKELVLQEKDFINDELSPYSILNYFQDIAGIHADKIGLSHEELIKNDLVWVVLRNKYEIIKMPSINQKVILKTWPHQKGKIDFDREYAIYDENNNLLIKGLSKWILMNYKTRRISMFNNIKYSFECLEETNFENKFNKIEDFDINNFSFIETTTSENDLDINGHVNNASYARIVLNNIDFDITINHFEINYIKEIKANQKLKIYYLKKDNTYYIKAFNNEEVIFVLIVY	notable for their activity toward heptanedioyl-ACP
SEQ ID NO: 183: Clostridium sp. CAG: 798 thioesterase (protein, Clostridium sp. CAG:798, Clostridium sp; CAG: 798 thioesterase) MAIIENKYHIGIKYVDKDRLLSLRGIILLFEDIACRHSDMVGYGINDVTKTHFSWVLLNWKIKVLSRINYGSIVTVKTWSRETSKLYTYRDFEIYDENNNLICIASSKWVLLSTETGHIIHITEEIKNAYLAENKTVFNESDLHKIVEPDNAEKTFSFTVRRRDIDINNHMNNLYYLDYALEALPEEVYSKFFNNVEIMYKYSAKLGETINCFYKEEEDGYYVMMKSATDNILHALVKLY	notable for their activity toward heptanedioyl-ACP
SEQ ID NO: 184: [Clostridium] ultunense Esp thioesterase (protein, Clostridium ultunense Esp, [Clostridium] ultunense Esp thioesterase) MKATPLYIKDYKVEINHVDFKGDLKLSSLFTYCQDIAGLHAENLGMGREVLYTQHRVIWVLVRVRVDIIKYPKWKDILTLETWPQEPSRMGFDRDFLIKDKKGNILAKAVSTWVVIDVESRKLVRTKSVYTGYPLVVEKRAIDCKLGNLKSSGELETAYERTVRYSDIDVNEHLNNAKYLDFIMDSFSFEEHRRFNVKSVEISYSNEALLGETIKIYEDRSRIDSNIIYMEGIREGKDLVFKSQIEIEEK	notable for their activity toward heptanedioyl-ACP
SEQ ID NO: 185: Granulicatella elegans ATCC 700633 thioesterase (protein, Granulicatella elegans ATCC 700633, Granulicatella elegans ATCC 700633 thioesterase) MTVDVICQIERTILPYECDWKENLLLSQALGMMMLASRKQQQQLQNPNLIYEKGYTWIVIQHEIEIQRMPKVDEEVIIETQAISYNKFFTYREYRILSKEREELFKCITTFAMLDMKARKIVSIDEEVVLEYPLSIGKEMRKATRIPKKDFSDATTGEYKIRINDIDANLHVNNARYFDFAFSELGMEFIEDHQLKQVVIKYEKEVLPESTISCSTLWEENTLESQERRQTYHLISQDGNRCANIQMKWEEIV	notable for their activity toward heptanedioyl-ACP
SEQ ID NO: 187: Eggerthella sp. CAG:1427 thioesterase (protein, Eggerthella sp. CAG:1427, Eggerthella sp; CAG:1427 thioesterase) MTIGYEQTYQLRTGDFDRYAHLLPSSILDVFQDVAGVNAEQVPGMTWKELTDAGLFWVVTRIKYEVIETPHLHEQVIARTWPLAPTRLGFQREYTMRKLDGTPLVKCSSDWILMDYKTRSFASARDFYNGPQDFSEEKVFEKKLRKIKTFEPEDTGETFQVHFVDIDINGHVNNSKYPNFVMNSLDLGEDETIKTFQIDYRHELRAGSTVRIHSKRDGNVITSMGISTEGDTAGECMFATQIELA	notable for their activity toward heptanedioyl-ACP
